Test results: patent US20200330514A1 (TORQUE THERAPEUTICS, published 2020)

T1: human CD45 receptor on the surface of human T cells (human, UniProt P08575 26-1306)
T1 construct: whole, on cells; also called cellular CD45; leukocyte common antigen
T1 sequence (looked up): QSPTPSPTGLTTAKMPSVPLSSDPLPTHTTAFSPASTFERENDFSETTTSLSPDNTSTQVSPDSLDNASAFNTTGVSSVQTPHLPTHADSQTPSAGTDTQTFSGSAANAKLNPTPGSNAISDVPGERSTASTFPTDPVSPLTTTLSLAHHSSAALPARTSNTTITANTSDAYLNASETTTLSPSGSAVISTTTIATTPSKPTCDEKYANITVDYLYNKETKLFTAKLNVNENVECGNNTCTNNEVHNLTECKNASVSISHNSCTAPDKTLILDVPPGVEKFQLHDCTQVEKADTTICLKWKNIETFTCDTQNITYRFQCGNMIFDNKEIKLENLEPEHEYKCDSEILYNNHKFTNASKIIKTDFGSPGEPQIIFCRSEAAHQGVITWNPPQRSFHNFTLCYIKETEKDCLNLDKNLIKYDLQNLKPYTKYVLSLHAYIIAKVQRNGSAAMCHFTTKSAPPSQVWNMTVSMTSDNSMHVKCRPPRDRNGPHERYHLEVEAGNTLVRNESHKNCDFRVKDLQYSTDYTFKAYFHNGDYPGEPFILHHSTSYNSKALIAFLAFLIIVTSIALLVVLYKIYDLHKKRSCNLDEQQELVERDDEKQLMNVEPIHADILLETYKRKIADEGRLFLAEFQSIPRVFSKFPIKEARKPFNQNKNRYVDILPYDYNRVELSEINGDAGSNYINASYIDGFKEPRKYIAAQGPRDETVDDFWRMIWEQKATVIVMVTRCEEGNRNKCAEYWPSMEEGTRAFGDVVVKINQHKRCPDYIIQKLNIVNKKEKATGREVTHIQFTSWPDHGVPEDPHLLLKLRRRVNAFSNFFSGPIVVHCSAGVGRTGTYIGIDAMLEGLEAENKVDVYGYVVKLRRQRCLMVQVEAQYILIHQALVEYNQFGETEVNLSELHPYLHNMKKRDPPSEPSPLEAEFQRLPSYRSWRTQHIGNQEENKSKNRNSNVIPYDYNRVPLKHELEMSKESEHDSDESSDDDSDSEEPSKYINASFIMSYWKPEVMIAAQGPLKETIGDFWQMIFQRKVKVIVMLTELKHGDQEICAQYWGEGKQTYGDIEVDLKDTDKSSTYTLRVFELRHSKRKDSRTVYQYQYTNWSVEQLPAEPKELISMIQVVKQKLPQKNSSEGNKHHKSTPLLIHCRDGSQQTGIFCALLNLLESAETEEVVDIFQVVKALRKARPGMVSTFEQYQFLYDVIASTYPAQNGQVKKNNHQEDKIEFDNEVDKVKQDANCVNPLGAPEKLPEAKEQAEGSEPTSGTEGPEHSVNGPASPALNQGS

B1: human CD8 on the surface of human CD8 T cells (receptor)
chain 1: not shown
chain 2: LQQTPAYIKVQTNKMVMLSCEAKISLSNMRIYWLRQRQAPSSDSHHEFLALWDSAKGTIHGEEVEQEKIAVFRDASRFILNLTSVKPEDSGIYFCMIVGSPELTFGKGTQLSVVDFLPTTAQPTKKSTLKKRVCRLPRPETQKGPLCSPITLGLLVAGVLVLLVSLGVAIHLCCRRRRARLRFMKQFYK
notes: whole, on cells

Assays:
[1] = target: T1, human CD45 receptor on the surface of …; assay: apparent KD (KD,app); flow cytometry titration of IgG on activated primary human CD8 T cells, 4-parameter fit
Description: For comparison with previous results we evaluated these antibodies alongside chBC8, hBC8(23), and a non-binding variant hBC8-null. The humanized BC8 antibody consists of variable domains containing CDR regions grafted from BC8, and the hBC8-null variant contains an SGGGS substitution in the heavy-chain CDR3, which ablates binding to CD45 (FIG. 10A). […] We use the term apparent dissociation constant (K_{D,app}) to distinguish from a true equilibrium dissociation constant: the bivalent nature of the IgG antibody introduces an avidity effect that complicates the calculation of a true equilibrium dissociation constant for these type of assays. Nevertheless, the K_{D,app} is a useful metric for scoring relative affinities of the antibodies to the cellular receptor in its native context.
Cell binding assay. Primary human CD8 T-cells were activated with CD3/CD28 beads and 10 ng/mL IL-2 as described in Example 1. Following activation and an overnight rest in full RPMI media (see Example 1 methods) the T-cells were incubated with seven serial five-fold dilutions of antibodies spanning 500 nM to 6.4 μM, or with media only control at 4° C. for 1 hr. Cells were washed with MACS buffer (PBS, 2% FBS, 1 mM EDTA) three times, and antibody binding was detected using a PE-conjugated anti-human IgG-Fc antibody (BioLegend, cat. no. HP6017) for 20 min. at 4° C. Cells were washed two times with MACS buffer, and the resuspended in MACS buffer with live-dead stain (7-AAD). Antibody binding was quantified using the median fluorescence intensity (MFI) of the live cell population (via 7-AAD exclusion) within the PE signal. Curves were generated by plotting mean fluorescent units against antibody concentration, and apparent dissociation constants (K_{D,app}) were determined by non-linear regression using a four-parameter logistic equation using GraphPad Prism (GraphPad Software, Inc.).

[2] = target: T1, human CD45 receptor on the surface of …; assay: pulse incubation of human CD3 T cells, anti-human IgG staining by flow cytometry (FIG. 23)
Description: We evaluated the ability of IL12-TFs to support the loading of IL-12 onto T cells. Briefly, human total CD3 T cells were activated with CD3/CD28 Dynabeads for three days. Beads were removed and cells were incubated with IL-2 for 1 day prior to pulse incubation with h9.4Fab-scIL-12p70 diluted in full medium (RPMI 1640 with 10% FBS). Cells were incubated in biological duplicate with full media (Mock condition) or h9.4Fab-scIL-12p70 for 1 hr at 37° C. and then washed three times will full media (RPMI 1640 with 10% FBS) to remove unbound IL12-TF. Cells were then plated in full medium at a cell density of approximately 200,000 cells/mL and incubated at 37° C., 5% CO2. Surface tethered IL-12 was detected using flow cytometry by immunostaining with a polyclonal anti-human IgG antibody. Cells were counted using CountBright Absolute flow cytometry counting beads. In each case cells were analyzed on a FACSCelesta using Diva Software; data was analyzed using Cytobank.

[3] = target: B1; assay: flow cytometry titration on total CD3 human T cells (FIG. 17D)
chOKT8-IL15/sushi Fab = target: T2, chOKT8-IL15/sushi Fab (human, UniProt Q13261 31-95); assay: as above
T2 construct: Anti-human CD8 Fab IFM; also called chOKT8Fab-IL15/sushi; chOKT8Fab-Il15/sushi
T2 sequence (Q13261 31-95): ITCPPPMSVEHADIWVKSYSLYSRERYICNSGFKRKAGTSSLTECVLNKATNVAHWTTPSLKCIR

Kd [1] | Binder | other results
6.68 nM | chBC8 chimeric IgG anti-CD45 antibody (IgG4-S228P) (antibody, V domains shown, also called chBC8 IgG; chimeric BC8) VH: QVQLVESGGGLVQPGGSLKLSCAASGFDFSRYWMSWVRQAPGKGLEWIGEINPTSSTINFTPSLKDKVFISRDNAKNTLYLQMSKVRSEDTALYYCARGNYYRYGDAMDYWGQGTSVTVSS VL: DIVLTQSPASLAVSLGQRATISCRASKSVSTSGYSYLHWYQQKPGQPPKLLIYLASNLESGVPARFSGSGSGTDFTLNIHPVEEEDAATYYCQHSRELPFTFGSGTKLEIKR | 
 | h9.4Fab-scIL-12p70 (other, Anti-human CD45 Fab fused to single-chain human IL-12p70; also called anti-CD45-IL12-TF; IL12-TF) heavy: EVQLVQSGAEVKKPGASVKVSCKASGYTFTSYSIQWVRQAPGQRLEWIGYINPSSGYIKYNQHFRGRATLTADRSASTAYMELSSLRSEDTAVYYCARGNSGSFDYWGQGTLVTVSSASTKGPSVFPLAPSSKSTSGGTAALGCLVKDYFPEPVTVSWNSGALTSGVHTFPAVLQSSGLYSLSSVVTVPSSSLGTQTYICNVNHKPSNTKVDKKVEPKSC light: DIVMTQSPLSLPVTPGEPASISCRSSQSLLHSSGITYLYWFLQKPGQSPQLLIYRMSNLASGVPDRFSGSGSGTDFTLKISRVEAEDVGVYYCMQHLEYPFTFGQGTKLEIKRTVAAPSVFIFPPSDEQLKSGTASVVCLLNNFYPREAKVQWKVDNALQSGNSQESVTEQDSKDSTYSLSSTLTLSKADYEKHKVYACEVTHQGLSSPVTKSFNRGECGGGGSGGGGSGGGGSIWELKKDVYVVELDWYPDAPGEMVVLTCDTPEEDGITWTLDQSSEVLGSGKTLTIQVKEFGDAGQYTCHKGGEVLSHSLLLLHKKEDGIWSTDILKDQKEPKNKTFLRCEAKNYSGRFTCWWLTTISTDLTFSVKSSRGSSDPQGVTCGAATLSAERVRGDNKEYEYSVECQEDSACPAAEESLPIEVMVDAVHKLKYENYTSSFFIRDIIKPDPPKNLQLKPLKNSRQVEVSWEYPDTWSTPHSYFSLTFCVQVQGKSKREKKDRVFTDKTSATVICRKNASISVRAQDRYYSSSWSEWASVPCSGGGSGGGSGGGSGGGSRNLPVATPDPGMFPCLHHSQNLLRAVSNMLQKARQTLEFYPCTSEEIDHEDITKDKTSTVEACLPLELTKNESCLNSRETSFITNGSCLASRKTSFMMALCLSSIYEDLKMYQVEFKTMNAKLLMDPKRQIFLDQNMLAVIDELMQALNFNSETVPQKSSLEEPDFYKTKIKLCILLHAFRIRAVTIDRVMSYLNAS | binding result [2]: binds
 | chOKT8Fab (anti-human CD8 clone OKT8 as Fab fragment) (Fab, V domains shown) VH: QVQLQQSGAELVKPGASVKLSCTASGFNIKDTYIHFVRQRPEQGLEWIGRIDPANDNTLYASKFQGKATITADTSSNTAYMHLSSLTSGDTAVYYCGRGYGYYVFDHWGQGTTLTVSS VL: DVQINQSPSFLAASPGETITINCRTSRSISQYLAWYQEKPGKTNKLLIYSGSTLQSGIPSRFSGSGSGTDFTLTISGLEPEDFAMYYCQQHNENPLTFGAGTKLELKR | binding result [3]: binds
 | B1 | binding result (chOKT8-IL15/sushi Fab): binds
0.44 nM | ch4B2 chimeric IgG anti-CD45 antibody (antibody, V domains shown, Chimeric IgG: mouse variable domains, human constant kappa domain and human IgG4 with S228P) VH: QVQLQQSGAELARPGASVKMSCKASGYTFTSYTMQWVKQRPGQGLEWIGYINPSSGYIKYNQKFKDKVTLTADKSSTTAYMQLSRLTSEDSAVYYCARRGSYFFDFWGQGTSVTVSS VL: DIVITQDELSNPVTSGESVSISCRSSKSLLYKDGKTYLNWFLQRPGQSPQLLIYLMSTRASGVSDRFSGSGSGTDFTLEISRVKAEDVGVYYCQQLVEYPFTFGGGTKLEVK | 
0.84 nM | ch9.4 chimeric IgG anti-CD45 antibody (antibody, V domains shown, Chimeric IgG: mouse variable domains, human constant kappa domain and human IgG4 with S228P) VH: QVQLQQLGAELARPGASVKMSCKASGYTFTSYSIQWVKQRPGQGLEWIGYINPSSGYIKYNQHFRDRATLTADRSSSTAYMQLSSLTSEDSAVYYCARGNSGSFDYWGQGTTLTVSS VL: DIVMTQAAPSVPVTPGESLSISCRSSKSLLHSSGITYLYWFLQRPGQSPQLLIYRMSNLASGVPDRFSGSGSGTAFTLRISRVEAEDVGVYYCMQHLEYPFTFGGGTKLEIK | 
7.8 nM | hBC8(23) humanized BC8 anti-CD45 antibody (IgG form) (antibody, V domains shown, Tested as an antibody detected with anti-human IgG-Fc; its constant regions are not spelled out for the humanized antibody) VH: EVQLVESGGGLVQPGGSLRLSCAASGFDFSRYWMSWVRQAPGKGLEWIGEINPTSSTINFADSVKGRFTISRDNAKNSLYLQMNSVRDEDTAVYYCARGNYYRYGDAMDYWGQGTLVTVSS VL: EIVLTQSPATLSLSLGERATISCRASKSVSTSGYSYLHWYQQKPGQAPKLLIYLASNRATGVPARFSGSGPGTDFTLTISSLEPEDFATYYCQHSRELPFTFGQGTKLEIK | 
